For 2 substances, partial neutralization and neutralization by the trimer against the monomer results are on record in patent publication US20230287087A1.

The target in this assay is Spike protein of patient-derived SARS-CoV-2 (D614G) (SARS-CoV-2) (UniProt P0DTC2). Nature of the assay: cell-based or functional assay.

Turning to VHH-72 monomer, the partial neutralization was determined as 170 nM.

For VHH-72 ColXVIII trimer, the neutralization by the trimer against the monomer came to 10000 fold.
